Source: the DeepSol protein solubility set

Experiment: soluble on expression in E. coli; label from the status in PepcDB or PDB records

Sequence | soluble on expression in E. coli
MMLITDTGVPERYIDTDEWGGEVMLRLDDGWCAALDRNTMMCTIYEKRPLICREFEAGAEDCLTERKGIATAYL | soluble
MSLHTSHVIPAPRIDVWEWHTRPGAVFRLTPPFLPLRPLEQATSLAKGTTVFALPAGLRWEARHDLSGYIQHHRFTDVCINAPVKSLASWRHIHDFTDHPSGTLITDTVHTRAPRTTLSPAFAYRQHQLINDIQAQQRFYELTRSNPTESTPLTIGLTGSRGLVGRALTAQLTTLGHTVVQLVRGESKPHQRHWDPAHPAPNLLEGLDALIHLAGEPILGRFNDAHKADIRDSRIEPTRQLSQLVQKSSTCRTMVSASAIGYYGHARGDEILDEGSTQGDDFLASVCEEWEAASRTDATSNKRIVNIRTGVVMSGRGGMLPVLKAVFSVGLGGPFRGSNPWMSWIAIDDLCDIYIRAVLDPKLSGAINAVAPNPIKNQDFVDALAKELKRPAKMTISSLGPAILLGQQGAKELALADQRVQPRVLNNLDHHFRYVDIRSCLAHELGGENLLDI | not soluble
MTKINVPLETSNKTTSDLEKKKPFSVLLMGSDARPGETNGRADTIILATANKQQNAVEMVSIPRDTKVDYGNGDIGKINASYSNGGPSGTVSAVEKLMPGVPVDYFISINMEGFKDLVDAVGGITVYNDIDLTEVNSKFVKGNITLNGTDALQYVRIRHEDPRGDFGRQDRQRDVIIGIANKVISSSGVSNFESIMKAVGDNFQTNMTLTDITSMATNYSSVLKNVDSQELKGEGEMIYSESYGFDLYYFAPDETDLERVINMFKKSLDITELEHHHHHH | soluble
MGSDKIHHHHHHMNLEQILLAISNPNDNELTIAGLEAAKVNWSVFYPELERLMDQFIADDTSLTDEQEAIVFFGTLLLAELKYSPALAKCLQLFARSDTYLTPIEAIFGDALTELTATLFFNVADGSTQTLSDYIVDGHQAMYCKASAIEAVFAQYEVGVIDKTELVEHVTRWLAAFLALPSSNNSFLISVLADSCIKYQLDDFKPQFIDLCDNDLFDEDRFKQCEVKAWDKANAAKLIESGNIQTKFNVVDTLNAWIVDDSNNEVADNMSNEDSDAFESLMGEDGLLADILYDENTILENSVPVSSLPTAGRNDPCPCGSGKKYKKCCLR | not soluble
MEDLIDGIIFAANYLGSTQLLSDKTPSKNVRMMQAQEAVSRIKMAQKLAKSRKKAPEGESQPMTEVDLFILTQRIKVLNADTQETMMDHPLRTISYIADIGNIVVLMARRRIPRSNSQENVEASHPSQDGKRQYKMICHVFESEDAQLIAQSIGQAFSVAYQEFLRANGINP | soluble
SSSISELYDVTWEEMRDKLRKWREENYRNSEQIVDVGEELINEHASKLGDDIWIIYEQVMIAALDCSRDDLAWSCLQELKRQFPDSHRVKRLAGMRLEALERYDDANKLYDSILQDDPTNTAARKRKICILRAQGKSSEAIRELNEYLEQFVGDQEAWHELSELYINEHDYAKAAFCLEELMMTNPHNHLYCEQYAEVKYTQGGLENLELARKYFAQALKLNNRNMRALFGLYMSASHIAASPKVSAKVKKDNVKYAAWAAAQISRAYQMAGRGKKENKCSVKAVEEMLESLQITMS | soluble
MAETTPKVKGHVVILPYPVQGHLNPMVQFAKRLVSKNVKVTIATTTYTASSITTPSLSVEPISDGFDFIPIGIPGFSVDTYSESFKLNGSETLTLLIEKFKSTDSPIDCLIYDSFLPWGLEVARSMELSAASFFTNNLTVCSVLRKFSNGDFPLPADPNSAPFRIRGLPSLSYDELPSFVGRHWLTHPEHGRVLLNQFPNHENADWLFVNGFEGLEETQDCENGESDAMKATLIGPMIPSAYLDDRMEDDKDYGASLLKPISKECMEWLETKQAQSVAFVSFGSFGILFEKQLAEVAIALQESDLNFLWVIKEAHIAKLPEGFVESTKDRALLVSWCNQLEVLAHESIGCFLTHCGWNSTLEGLSLGVPMVGVPQWSDQMNDAKFVEEVWKVGYRAKEEAGEVIVKSEELVRCLKGVMEGESSVKIRESSKKWKDLAVKAMSEGGSSDRSINEFIESLGK | soluble
PETVCWGHVEEVELINDGSGLGFGIVGGKTSGVVVRTIVPGGLADRDGRLQTGDHILKIGGTNVQGMTSEQVAQVLRNCGNSVRMLVARDPAGDISVT | soluble
MNINLETAEQHAVQAYSDKKIQINSIIYESSLIVSKKEIITDFVIKDIQDINNSYIDLLLRSKPELIIIGHLQTGKTLPATLISQLSQKRIGIECMSIGAACRTYNVLLSEHRAVVAGFIFLEHHHHHH | not soluble
